The results in this text go back to doi:10.1101/2025.05.06.651509 (bioRxiv, 2025).

The data set concerns the molecule itself. As to the kind of experiment: MST.

B1: recombinant TSC22D4 (natural protein, human, UniProt Q9Y3Q8 1-395, looked up)
chain: MSGGKKKSSFQITSVTTDYEGPGSPGASDPPTPQPPTGPPPRLPNGEPSPDPGGKGTPRNGSPPPGAPSSRFRVVKLPHGLGEPYRRGRWTCVDVYERDLEPHSFGGLLEGIRGASGGAGGRSLDSRLELASLGLGAPTPPSGLSQGPTSWLRPPPTSPGPQARSFTGGLGQLVVPSKAKAEKPPLSASSPQQRPPEPETGESAGTSRAATPLPSLRVEAEAGGSGARTPPLSRRKAVDMRLRMELGAPEEMGQVPPLDSRPSSPALYFTHDASLVHKSPDPFGAVAAQKFSLAHSMLAISGHLDSDDDSGSGSLVGIDNKIEQAMDLVKSHLMFAVREEVEVLKEQIRELAERNAALEQENGLLRALASPEQLAQLPSSGVPRLGPPAPNGPSV
modifications: RED-tris-NTA dye on the His tag (labelled copy only)
Regarding B1, the binding result is reported as “binds”.

B2: TSC22D4 I322W (natural protein, human, UniProt Q9Y3Q8 1-395, looked up)
chain: MSGGKKKSSFQITSVTTDYEGPGSPGASDPPTPQPPTGPPPRLPNGEPSPDPGGKGTPRNGSPPPGAPSSRFRVVKLPHGLGEPYRRGRWTCVDVYERDLEPHSFGGLLEGIRGASGGAGGRSLDSRLELASLGLGAPTPPSGLSQGPTSWLRPPPTSPGPQARSFTGGLGQLVVPSKAKAEKPPLSASSPQQRPPEPETGESAGTSRAATPLPSLRVEAEAGGSGARTPPLSRRKAVDMRLRMELGAPEEMGQVPPLDSRPSSPALYFTHDASLVHKSPDPFGAVAAQKFSLAHSMLAISGHLDSDDDSGSGSLVGIDNKWEQAMDLVKSHLMFAVREEVEVLKEQIRELAERNAALEQENGLLRALASPEQLAQLPSSGVPRLGPPAPNGPSV
In the case of B2, the binding result is “binds”.
